Experimental findings from patent US20100249184A1, “INDUCTION AND/OR MAINTENANCE OF TUMOR DORMANCY BY DISRUPTION OF UROKINASE PLASMINOGEN ACTIVATOR RECEPTOR-INTEGRIN INTERACTION” (MOUNT SINAI SCHOOL OF MEDICINE, priority 2007, published 2010) are described below.

For assay [1], the target named is T1, purified human α5β1-integrin (Homo sapiens, UniProt P05556+P08648).
T1 construct: purchased Chemicon International (Temecula, Calif.)
Description: Solid phase dot-ELISA: α5β1-integrin binding to immobilized uPAR peptides and suPAR. To be noted: for α5β1-integrin binding to immobilized peptide: peptide immobilized on nitrocellulose, α5β1-integrin 750 ng/ml. The protocol: FIGS. 1A-H show the interaction between α5β1-integrin and immobilized uPAR and uPAR-derived synthetic peptides through solid-phase dot-ELISA. […] Bound integrin was detected with anti-α5 integrin antibody followed by goat anti-rabbit IgG (H+L) HRP conjugated secondary antibody and developed with enhanced chemiluminescence (“ECL”). FIG. 1B is a graph showing that binding of integrin to suPAR is saturable. SuPAR (1.5 μg) was immobilized on nitrocellulose membrane in triplicates, incubated with 0, 0.1, 0.5, 1, 2, and 4 μg/ml of α5β1-integrin and tested for integrin binding as in FIG. 1A. The dots were scanned with NIH Image. Mean and SE are shown. […] Peptides representing regions located in each of the three uPAR-domains were immobilized, incubated with α5β1-integrin, and analyzed as in FIG. 1A. Only peptide 240-248 binds α5β1-integrin. FIG. 1D is a graph showing that peptide 240-248 inhibits integrin binding to suPAR. The α5β1-integrin (750 ng/ml) was pre-incubated for 15 min at room temperature with 100 fold molar excess of 240-248 or 17-24 peptides, or with no peptide (Control) and the mixtures were applied to immobilized suPAR (1.5 μg), 2 dots per mixture, and developed as in FIG. 1A. The dots were scanned with NIH Image. The results (bars) show % of control, the lines show range. FIG. 1E is a graph showing binding of α5β1- and α3β1-integrin to suPAR and peptide 240-248. Dot-ELISA was performed in duplicate as in FIG. 1A, except that purified α5β1-integrin and α3β1-integrin (750 ng/ml) were used. Bound integrins were detected with the appropriate previously titrated antibodies followed by goat anti-rabbit IgG (H+L) HRP conjugated secondary antibody and detection with ECL. The graph represents the mean and range of two values: α5β1-integrin binding to peptide 240-248 (▪) or SuPAR (▴); α3β1-integrin binding to peptide 240-248 ([…]) and SuPAR (x). […] Peptide 240-248 (domain III), 17-24 (domain I), and the S245A mutant of peptide 240-248 were immobilized and tested for integrin binding as in FIG. 1A. FIGS. 1G-H show the crystal structure of human uPAR shown as a surface representation. The three individual domains of uPAR in FIG. 1G are indicated as follows: D1 is on the right side, DII is on the top of the model, and Diii is on the left of the model. In FIG. 1H, the order of the domains is inversed. […] The location of the COOH-terminal in uPAR domain III harboring the GPI-anchor is indicated by the arrow (FIG. 1H). FIGS. 1G-H were created by the program PyMol (DeLano Scientific) using the coordinates 1YWH.
FIGS. 2A-B show solid phase dot-ELISA of suPAR. […] Binding was detected as in FIG. 1A and the dots were scanned with NIH Image. Mean of the two-scanned value for each suPAR concentration are shown in the bottom panel. Mutation of residues in the 239-249 sequence reduced the integrin binding by ˜50 to 94%. suPAR^E33A (▪), suPAR^wt (▴), suPAR^R239A (♦), suPAR^H249A (x), suPAR^Q248A (∘), suPAR^M246A ([…]), suPAR^S245A (□).
Synthetic uPAR-derived peptides and mutant proteins were diluted to 0.5, 1, and 2 μg/100 μl of PBS. […] The strips, pinned to the bottom of a plastic box, were washed with TBS with 0.1% Tween 20, overlaid with 500 μl of rabbit anti-integrin α5 polyclonal antibody (1:650) for 1 hr at RT, washed with TBST twice, incubated with goat anti-rabbit IgG (H+L) HRP conjugated secondary antibody (1:2000) for 1 hr, washed 3 times with TBST, and developed with ECL. The dots were scanned with NIH image.
On the technique in general: ELISA stands for enzyme-linked immunosorbent assay.

Assay [2] concerns T-HEp3 cells. Description: Fibronectin-fibrils disruption. As to conditions: cells displaying fibronectin fibrils; control had 90.2% fibril positive cells; compounds 5 and 10 μM, 16 h. In kind it is cell-based, human. On the procedure: To test the effects of fibronectin-fibril disruption by the compounds, T-HEp3 cells were incubated in 5% fibronectin-depleted fetal bovine serum (FBS)/DMEM with 0, 2.5, 5, 7, and 10 μM of the compounds or anti-uPAR antibody (R2, 20 μg/ml) or anti-α5β1 antibody (BIIG2, 20 μg/ml) or MEK inhibitor (PD98059, 25 μM) as a […] at room temperature for 15 min prior to plating them in chambered slides. […] The cells were fixed with 3% paraformaldehyde for 20 min and the bound fibronectin was detected using rabbit anti-human fibronectin antibody and with FITC-conjugated secondary antibody.
Compounds MS0012479 and MS0019128 and their analogs were tested for fibronectin-fibril disruption. […] A total of 700 to 1150 cells were counted in 5 individual fields. Cells displaying fibronectin fibrils were then counted and expressed as a percentage of total cells. The mean obtained from the compound-treated cells was expressed as a percentage of control. The control had 90.2% of fibril positive cells (Table 2).

Assay [3] concerns T-HEp3 cells. Description: Screening of compounds by luciferase assay (Luc-Elk activity as readout for ERK). In kind it is cell-based, human. As to conditions: 5 μM compound, 16 h. On the procedure:
To test the effect of uPAR-integrin disruption by uPAR-docked compounds on ERK activation, T-HEp3 cells were transiently co-transfected with pFA-Elk1-fusion plasmid and pD700-luciferase plasmid in a 96-well plate. These plasmids report the state of ERK activation through luciferase activity level. After 24 h of transfection, cells were serum starved for 5 h and incubated with PD98059 (Calbiochem, San Diego, Calif.) (25 and 50 μM) and 5 μM of each compound prepared in DMEM. Following 16 h of incubation with compounds, the cells were lysed directly in Steady glo-luciferase lysis buffer (1:1) from Promega and read on Tecan Safire2™ using Magellan 6.0 software. Histographs representing the percent inhibition of Luc-Elk activity as readout for ERK reduction were generated.

The target of a further assay is T2, β1-integrin (Homo sapiens, UniProt P05556).
T2 construct: endogenous in cells; host or cells: HEK293 cells (ATCC), transiently transfected with pcDNA3.1 vector, uPAR^wt or uPAR^S245A
T2 sequence (P05556 21-798): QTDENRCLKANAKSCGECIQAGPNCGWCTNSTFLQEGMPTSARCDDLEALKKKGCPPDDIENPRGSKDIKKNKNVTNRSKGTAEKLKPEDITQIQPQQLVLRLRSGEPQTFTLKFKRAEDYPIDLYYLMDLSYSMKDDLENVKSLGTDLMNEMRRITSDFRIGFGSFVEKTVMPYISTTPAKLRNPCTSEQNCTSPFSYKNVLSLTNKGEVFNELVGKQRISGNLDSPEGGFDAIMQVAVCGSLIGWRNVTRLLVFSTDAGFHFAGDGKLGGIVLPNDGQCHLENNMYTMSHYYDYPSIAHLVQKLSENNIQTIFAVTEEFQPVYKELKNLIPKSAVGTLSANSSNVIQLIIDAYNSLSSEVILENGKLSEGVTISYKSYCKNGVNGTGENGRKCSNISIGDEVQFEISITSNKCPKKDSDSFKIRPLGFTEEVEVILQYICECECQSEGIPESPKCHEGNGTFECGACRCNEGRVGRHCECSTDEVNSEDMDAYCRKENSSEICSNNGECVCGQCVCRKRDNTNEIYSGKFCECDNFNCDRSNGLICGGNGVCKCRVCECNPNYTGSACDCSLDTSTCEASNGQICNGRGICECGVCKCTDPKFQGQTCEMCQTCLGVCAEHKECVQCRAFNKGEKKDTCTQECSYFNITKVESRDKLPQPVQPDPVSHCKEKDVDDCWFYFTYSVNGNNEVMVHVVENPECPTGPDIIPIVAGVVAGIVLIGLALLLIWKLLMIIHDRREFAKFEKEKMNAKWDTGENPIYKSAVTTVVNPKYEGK
T2 sequence (P08648 42-894 partner limits assumed): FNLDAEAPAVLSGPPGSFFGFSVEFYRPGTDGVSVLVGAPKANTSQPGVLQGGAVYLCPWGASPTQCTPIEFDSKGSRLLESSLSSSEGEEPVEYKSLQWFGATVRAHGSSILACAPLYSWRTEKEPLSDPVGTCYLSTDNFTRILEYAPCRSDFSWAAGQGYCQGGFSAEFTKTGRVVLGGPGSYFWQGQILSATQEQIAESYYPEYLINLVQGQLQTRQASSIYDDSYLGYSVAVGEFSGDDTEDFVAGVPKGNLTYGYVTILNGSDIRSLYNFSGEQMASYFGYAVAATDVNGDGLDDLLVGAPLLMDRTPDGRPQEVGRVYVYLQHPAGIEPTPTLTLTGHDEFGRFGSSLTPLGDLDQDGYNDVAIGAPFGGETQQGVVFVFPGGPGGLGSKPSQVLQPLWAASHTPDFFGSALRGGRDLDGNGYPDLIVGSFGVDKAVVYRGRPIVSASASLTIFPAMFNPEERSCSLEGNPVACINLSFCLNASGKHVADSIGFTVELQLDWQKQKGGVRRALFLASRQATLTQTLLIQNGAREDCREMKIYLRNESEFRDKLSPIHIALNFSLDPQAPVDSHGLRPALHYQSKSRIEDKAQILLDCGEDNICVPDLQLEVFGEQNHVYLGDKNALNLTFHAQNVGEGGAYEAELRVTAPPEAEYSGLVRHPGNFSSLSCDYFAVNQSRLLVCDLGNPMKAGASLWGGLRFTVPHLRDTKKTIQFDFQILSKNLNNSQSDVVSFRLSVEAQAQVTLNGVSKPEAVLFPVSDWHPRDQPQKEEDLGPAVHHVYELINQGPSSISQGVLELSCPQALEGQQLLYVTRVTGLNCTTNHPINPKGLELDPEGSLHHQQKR
T2 sequence (P08648 895-1049 partner limits assumed): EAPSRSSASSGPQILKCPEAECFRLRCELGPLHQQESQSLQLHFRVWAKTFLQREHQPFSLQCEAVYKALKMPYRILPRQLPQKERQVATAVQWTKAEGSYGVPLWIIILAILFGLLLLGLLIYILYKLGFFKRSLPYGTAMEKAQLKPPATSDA
Description: Detection of active β1 integrin by FACS (HUTS-4 antibody). It counts as cell-based. To be noted: vector transfected HEK293 cells; 1 mM MnCl2; untreated 50.9%. On the procedure:
FIGS. 3A-C illustrate that […] expressed in cells has reduced ability to activate α5β1-integrin. […] HEK293 cells were transfected with pcDNA3.1 (vector), uPAR^wt, or uPAR^S245A and used 48 hrs later. Vector-transfected cells incubated with medium alone or with medium with 1 mM MnCl2, followed by HUTS-4 and uPAR-transfected cells (uPAR^wt and uPAR^S245A) incubated with HUTS-4 or isotype matched Ig (IgG2b) were then incubated with secondary rabbit-anti mouse IgG coupled to Alexa 488. uPAR expression was detected using anti-uPAR antibody (R2). In the upper panels, the results are plotted as number of events vs. fluorescence intensity. The numbers indicate percent of total population above the median fluorescence intensity determined in vector-transfected cells. The lower panel relates to overlay of uPAR in uPAR^wt (black line) and uPAR^S245A (grey line) transfected cells. […] Cell-bound fibronectin was detected by immunofluorescence 48 hrs after transfection. […] HEK293 cells plated in 60 mm dishes were transfected and treated as in FIG. 3B, and the DOC-insoluble fibronectin was analyzed by 6% PAGE and Western blot under non-reducing conditions. […]
HEK293 cells were transiently transfected with pcDNA3.1, uPAR^wt, and uPAR^S245. […] Finally, cells were washed and suspended in 400 μl of FACS buffer and analyzed in FACS Canto (Becton Dickinson, Calif.) using FACSDiva software. […]
Background: Flow cytometry measures light scatter and fluorescence of single cells or particles in a stream.

The target of assay [4] is α5β1-integrin endogenous on HEK293, D-HEp3 and T-HEp3 cells (human) (UniProt P08648). Description: cell-based or functional assay.
Chain of α5β1-integrin endogenous on HEK293, D-HEp3 and T-HEp3 cells (human) (P08648 42-1049, chain 1 of 2): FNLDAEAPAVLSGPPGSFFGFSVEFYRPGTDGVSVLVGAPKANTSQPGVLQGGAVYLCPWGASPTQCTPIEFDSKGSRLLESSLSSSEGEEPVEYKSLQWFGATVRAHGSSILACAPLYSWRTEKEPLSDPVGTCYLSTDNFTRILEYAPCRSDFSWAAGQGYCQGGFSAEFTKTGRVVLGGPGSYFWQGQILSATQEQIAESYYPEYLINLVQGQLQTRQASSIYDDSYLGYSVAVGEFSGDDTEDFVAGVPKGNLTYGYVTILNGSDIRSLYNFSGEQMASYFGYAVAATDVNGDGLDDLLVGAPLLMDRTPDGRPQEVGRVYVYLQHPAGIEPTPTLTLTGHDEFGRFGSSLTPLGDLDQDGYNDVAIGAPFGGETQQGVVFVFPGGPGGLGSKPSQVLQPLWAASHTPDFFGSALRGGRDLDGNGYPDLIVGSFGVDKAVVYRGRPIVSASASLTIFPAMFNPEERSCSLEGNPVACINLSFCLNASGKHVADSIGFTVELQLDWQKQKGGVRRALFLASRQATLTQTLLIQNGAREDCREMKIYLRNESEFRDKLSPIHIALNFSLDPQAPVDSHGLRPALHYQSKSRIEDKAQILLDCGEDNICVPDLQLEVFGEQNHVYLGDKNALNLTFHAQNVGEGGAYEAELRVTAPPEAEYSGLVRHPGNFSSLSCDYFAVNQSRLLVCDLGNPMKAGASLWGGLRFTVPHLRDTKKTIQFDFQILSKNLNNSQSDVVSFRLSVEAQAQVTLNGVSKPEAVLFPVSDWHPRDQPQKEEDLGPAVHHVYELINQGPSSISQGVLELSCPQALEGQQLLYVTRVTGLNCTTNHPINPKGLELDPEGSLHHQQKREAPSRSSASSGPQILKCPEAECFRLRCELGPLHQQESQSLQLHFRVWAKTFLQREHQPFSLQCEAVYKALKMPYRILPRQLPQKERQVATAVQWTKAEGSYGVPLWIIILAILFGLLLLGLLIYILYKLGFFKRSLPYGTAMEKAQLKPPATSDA
Chain of α5β1-integrin endogenous on HEK293, D-HEp3 and T-HEp3 cells (human) (P05556 21-798, chain 2 of 2, further chain): as the sequence (P05556 21-798) above
Assay [5] concerns the target endogenous β1 integrin on HEK293 cells (active state) (human) (UniProt P05556). Description: flow cytometry, vector-transfected HEK293 cells, medium alone.
Assay [6] has the same target. Description: flow cytometry, vector-transfected HEK293 cells treated with Mn++ (1 mM MnCl2).
Assay [7] shares this target. Description: flow cytometry, HEK293 cells expressing uPAR^S245A.
Assay [8] has the same target. Description: flow cytometry, HEK293 cells expressing uPAR^wt.
Assay [9] concerns the target T3, immobilized pro-uPA^S356A (Homo sapiens, UniProt P00749, S376A).
T3 construct: Coupling of pro-uPA^S356A to the sensor chip by EDC/NHS
Description: Kinetics of pro-uPA/uPAR interaction by surface plasmon resonance. In kind it is binding. As to conditions: soluble uPAR (residues 1-283), 20° C.

Entries after “also recorded” stand apart in the source; their conditions may differ.

T1 sequence (P08648 42-894 limits assumed): as the sequence (P08648 42-894 partner limits assumed) above
T1 sequence (P08648 895-1049 limits assumed): as the sequence (P08648 895-1049 partner limits assumed) above
T1 sequence (P05556 21-798): as the sequence (P05556 21-798) above
Chain of endogenous β1 integrin on HEK293 cells (active state) (human) (P05556 21-798): as above

“66-74: synthetic uPAR-derived peptide, domain I 66-74: LTEVVCGLD (SEQ ID NO:6)”: in assay [1], the “α5β1-integrin binding to immobilized peptide” value is “no binding”. With “84-95: synthetic uPAR-derived peptide 84-95: AVTYSRSRYLEC (SEQ ID NO:7)”, in [1], the “α5β1-integrin binding to immobilized peptide” value was “no binding”. As to “108-118: synthetic uPAR-derived peptide, domain II 108-118: GRHQSLQCRSP (SEQ ID NO:8)”, in assay [1], the “α5β1-integrin binding to immobilized peptide” value is given as “no binding”.

In the case of `N=C(N/N=C\c1cccc(O)c1)c1ccccn1` [MS0019126], in the assay on T-HEp3 cells [2], the “Quantification (% of control)” value is recorded as 66.0 % of control. Also, the ERK inhibitory activity result in the assay with T-HEp3 cells [3] was “very strong; also recorded: showed ERK inhibitory activity”. Take `[Mn+2]` [Mn^++]: the “population with fluorescence above the median (HUTS-4)” value at β1-integrin amounted to 86.2%. In the case of “BIIG2 (α5β1-integrin function blocking antibody)”, the fibronectin-fibril positive T-HEp3 cells, % of control in assay [4] was 24.1 % of control. Take HUTS-4 antibody: the % of population with fluorescence intensity above the median turned out to be 50.9% in assay [5], 86.2% in assay [6], 44.6% in assay [7] and 74.4% in assay [8]. Consider “uPAR mutant E33A: purified soluble uPAR (residues 1-283) with single amino acid mutation E33A in domain I”, for which the “α5β1-integrin binding of full-length recombinant suPAR with single amino acid mutation” value in [1] (suPAR 0.5, 1.0, 2.0 μg immobilized, integrin 750 ng/ml) is “no effect”. In [9], the koff was 2.19 10^−4 S^−1 and the kon is 2.52 10^5 m^−1 S^−1.

As to “uPAR mutant H249A: purified soluble uPAR single amino acid mutant H249A”, in assay [9], the koff is on record as 1.92 10^−4 S^−1 and the kon is listed as 3.84 10^5 m^−1 S^−1. Take “uPAR mutant L66A: soluble uPAR single site mutant L66A, control known to affect uPA-uPAR interaction”: in assay [9], the koff was 10.6 10^−4 S^−1 and the kon is given as 2.26 10^5 m^−1 S^−1. As to “uPAR mutant R239A: purified soluble uPAR single amino acid mutant R239A”, in assay [9], the koff is 1.48 10^−4 S^−1 and the kon is 2.33 10^5 m^−1 S^−1.
